The results in this text go back to US20040001822A1, “Y1-isolated molecules comprising epitopes containing sulfated moieties, antibodies to such epitopes, and uses thereof” (priority 2000, published 2004).

The term % inhibition denotes the drop in the measured response relative to a control, in per cent.

In series [1] the target is T1, GPIb (glycocalicin) derived from platelets (Homo sapiens, UniProt P07359).
T1 construct: glycocalicin (soluble, extracellular fragment of GPIbα); from tissue; host or cells: human platelets
As to the kind of experiment: ELISA to glycocalicin, monomer versus cysteine dimer. In kind it is binding. Here is the method: An ELISA assay was performed to ascertain the differences in binding between the monomer (the Y1 scFv-also known as Y1-kak) and the dimer Y1-cys-kak (the cysteine dimer) for antigen GPIb (glycocalicin) derived from platelets. A polyclonal anti single chain antibody and/or a novel polyclonal anti-VL (derived from rabbits) and anti-rabbit HRP, were used to detect the binding to GPIb. […] For instance, to reach 0.8 OD units 12.8 μg/ml of monomer was used compared to only 0.1 μg/ml of dimer.
100 ml of purified glycocalicin was incubated in a 96 flat well maxisorp plates, overnight at 4 degrees celsius. The plate was washed with PBST (PBS+0.05% tween) 3 times, then […] of PBST-milk (PBST+2% Non fat milk), for 1 hr at room temperature. The plate was washed with PBST, and the monomer or dimer (100 ml) was added in PBST-milk at different concentrations for 1 hr at room temp. Then the plate was washed and anti-VL polyclonal (derived from immunized rabbits with VL derived from Y1) (1:100 diluted in PBST-milk) was added for an hour. The plate was washed and anti-rabbit HRP was added for an additional hour. The plate was washed 5 times and 100 μl TMB substrate was added for approximately 15 minutes then 100 μl of 0.5 H2SO4 was added to stop the reaction. The optical density of the plate was measured at 450 nm in an ELISA reader.

The test system of the next series is KG-1 cells. Nature of the series: AML KG-1 model in NOD/SCID mice. In kind it is in vivo. Here is the method:
The in vivo mouse model for human AML uses SCID/NOD mice (Jackson Laboratories) inoculated with KG-1 cells derived from a human AML cell line.
In a first experiment, NOD/SCID mice were pretreated with 100 mg/kg CYTOXAN®. Four days post CYTOXAN® injection, KG-1 cells were injected intravenously into the tail vein of six groups of mice. (Table N, Groups 2 and 5-9). One group of mice (Table N, Group 1) was injected with PBS alone (control).
Beginning 19 days post KG-1 injection mice were treated with: CONY1, Doxorubicin, CONY1-Doxorubicin conjugate, or Mylotarg®. (Mylotarg® is a monoclonal antibody (anti CD33) conjugated chemically to calcheamicin recently approved by the FDA for treatment of AML patients age 60 and over in a first relapse.) Mice were treated once or three times per week for three weeks. […]
Mice were sacrificed from 60 to 65 days post cell injection. Bone marrow samples were analyzed by flow cytometry using mouse anti human CD34-FITC (IQP 144F) (or anti CD44-FITC (MCA89F, Serotec)) and Y1-Biotin/SAV-PE. […]
An additional experiment was performed in which SCID-NOD mice were i.v. injected with 3×10^4 MOLT-4 cells/mouse 5 days post treatment with cyclophosphamide. […] Bone marrow was extracted and analyzed by FACS analysis using a commercially available antiCD44 antibody for the detection of MOLT-4 cells in the mice bone marrow cell population.

For a further series, the system named is MOLT-4 cells. As to the kind of experiment: T-ALL (MOLT4) model in SCID mice. The series is classed as in vivo. The procedure: The in vivo mouse model for T-ALL uses SCID mice (Jackson Laboratories) injected with MOLT4 cells derived from a T cell leukemia patient.
In one experiment, SCID mice were pretreated with 100 mg/kg Cytoxan (CTX, Cycloposphamid for injection, Mead Johnson). Eleven days after CTX injection, MOLT-4 cell were injected intravenously into the tail vein. Control mice were injected with PBS alone. One week post-MOLT-4 injection mice were injected with CONY1-Doxorubicin, which is a conjugate between scFv CON Y1 polypeptide, having KAK amino acid residues at its carboxy end and doxorubicin via a short organic linker; CONY1, which is a scFv antibody fragment derived from Y1 scFv in which the DNA sequences encoding the myc tag of Y1 were deleted and replaced with a DNA sequence encoding the amino acids lysine, alanine, lysine (KAK); or free Doxorubicin. The mice were injected three times per week for three weeks. […] (Table M).
Mice started to die 32 days post cell inoculation, and the surviving mice were sacrificed at this time. Bone marrow cells were analyzed by flow cytometry using anti-human CD44-FITC and Y1-Biotin/SAV-PE. Blood samples from several animals were monitored for platelet and white blood cell count. Livers were weighted and examined for tumor appearance. Other organs were also examined for tumor appearance.
In a second experiment, SCID mice were i.v. injected with 2×10^7 MOLT-4 cells/mouse, 5 days post treatment with cyclophosphamide. Anti-cancer agents or PBS (negative control animals) were injected i.v. three times/week from day 5 post MOLT-4 cells injection and onward. On day 35, blood was drawn from the animals, the animals were sacrificed, and their livers were excised and weighed. In the untreated, PBS-treated MOLT-4 cell-bearing animals, the liver presented with a very massive tumor growth, and its size was increased 2-3-fold relative to PBS control uninfected animals. In this experiment, there were five treatment groups:
In parallel, portions of liver tissue were taken for histology and cell harvesting for FACS analysis. The survival rate of another group of treated animals was recorded relative to that of control untreated mice.
In a third experiment, using the identical SCID/MOLT-4 protocol, there were 6 groups: […]

A short description of series [2]: Pharmacokinetics of 125I-CONY1 after intravenous injection. In kind it is in vivo, Male Balb-C mice. Here is the method: Two to four mice were used per time point. […] Organ/tissue total and specific radioactivity values were calculated.
Series [3] has as its system platelet-rich-plasma (PRP). Nature of the series: Ristocetin-induced aggregation of platelet-rich plasma after preincubation with scFv. In kind it is cell-based, human. The note with it: scFv 38 μg/ml. The procedure: The effect of Y1 (scfv) on aggregation of platelet-rich-plasma (PRP) was tested at various concentrations of Y1. PRP was pre-incubated with Y1 scfv, Y17 scfv, or a control sTM-1cFv for 4 min at 37° C. before being exposed to ristocetin, an inducer of platelet agglutination and aggregation. A reversible inhibitory effect was observed when scFv was added to PRP prior to the addition of ristocetin, and it was dose dependent.
Blood was collected into a tube containing 3.8% sodium citrate. Platelet-rich plasma was prepared by centrifugation at 250×g for 10 minutes.
(§1) For platelet aggregation studies, platelet rich plasma (PRP) and washed platelets were stirred at 500 rpm at 37° C. in whole blood Lumiaggregometer (Chronolog, Havertown,Pa.). The difference in light transmission through the platelet suspension and suspending medium was taken as 100% aggregation. The effect of Y1 on platelet aggregation was evaluated by addition of different concentration of Y1 before the addition of agonist, and the effect was recorded for four minutes.

A further series deals with washed platelets. Nature of the series: Ristocetin-induced agglutination of washed platelets after preincubation with scFv. In kind it is cell-based, human. Here is the method:
Aggregation is determined in PRP due to the presence of thrombotic agents, while agglutination is determined in washed platelets. The effect of Y1 (scFv) on agglutination of washed platelets was tested at various concentrations of Y1. Platelets were pre-incubated with Y1 scFv, Y17 scFv, Y16-scFv, or a control TM-1 scFv for 4 min at 37° C. before being exposed to ristocetin, an inducer of platelet agglutination and aggregation.
Platelet concentrate in acid-citrate-dextrose (ACD) was obtained from a blood bank, platelets were isolated, washed once in buffer containing ACD and saline in a ratio of 1:7. The platelets were centrifuged at 800 g for 10 min after each wash and were resuspended in Tyrodes solution (2 mM MgCl2, 137 mM NaCl, 2.68 mM KCl, 3 mM NaH2PO4, 0.1% glucose, 5 mM Hepes and 0.35% albumin, pH 7.35) and count the number of cells.
as §1
The effect of Y17-scFv on vWF-dependent agglutination of platelets was tested at different concentrations of Y17.

[4] abbreviates: scFv 25 μg/ml, ristocetin = 100% agglutination.

B1: CONY1: scFv derived from Y1 scFv with the myc tag replaced by lysine, alanine, lysine (KAK), SEQ ID NO: 204 (protein, listed as Homo sapiens)
scFv: MKYLLPTAAAGLLLLAAQPAMAEVQLVESGGGVVRPGGSLRLSCAASGFTFDDYGMSWVRQAPGKGLEWVSGINWNGGSTGYADSVKGRFTISRDNAKNSLYLQMNSLRAEDTAVYYCARMRAPVIWGQGTLVTVSRGGGGSGGGGSGGGGSSELTQDPAVSVALGQTVRITCQGDSLRSYYASWYQQKPGQAPVLVIYGKNNRPSGIPDRFSGSSSGNTASLTITGAQAEDEADYYCNSRDSSGNHVVFGGGTKLTVLGAAAKAK
Turning to B1, the “concentration to reach 0.8 OD units” value in series [1] came to 12.8 µg/mL. In the series on KG-1 cells (additional experiment, day 60, CONY1 scFv 75 μg/mouse three times/week, Mylotarg 7 μg/mouse once a week), the “prevalence of cancer cells in the bone marrow” value is “had no effect”. Also, the “percentage of KG-1 cells in bone marrow” value in the series with KG-1 cells (first experiment, KG-1 cells incubated in vitro with scFv before injection (groups 3 and 4)) is reported as “significantly lower percentage”. Besides, the “liver weight versus free Doxorubicin or untreated” value in the series with MOLT-4 cells (first experiment, three times per week for three weeks, sacrifice 32 days post cell inoculation) was “weighted significantly less”. The survival entry in the series with MOLT-4 cells (mice which received continued treatment) is “prolonged”. For the same molecule, in the series on MOLT-4 cells (second experiment, day 35, i.v. three times/week, CONY1 and conjugate 75 μg/mouse, Doxorubicin 0.1 mg/kg), the “liver weights / tumor growth in the liver” value is given as “markedly inhibited tumor growth in the liver”. The “tumor growth (based on liver weights)” value with MOLT-4 cells (third experiment, CONY1 scFv 75 μg/mouse, Y1-IgG 5 μg/mouse) is “inhibited tumor growth”. In addition, the “half-life of blood clearance, first compartment” value in series [2] (15 μg per mouse i.v., plasma TCA precipitable radioactivity, two-compartment model) stood at 0.583 h. Moreover, in series [2] (15 μg per mouse i.v., two-compartment model), the “half-life of blood clearance, second compartment” value came to 3.17 h. In series [2] (blood versus plasma radioactivity), the “distribution between plasma and erythrocytes” value was “practically all of the CONY-1 resided in the plasma and did not adhere to erythrocytes”. Further, the “specific uptake in body tissues” value in series [2] (liver, lung, kidney, spleen, bone marrow, 5 minutes to 24 hours) is “no major specific uptake”.

B2: Y17 scFv: second scFv clone binding platelets and myelogenous leukemia cell lines, SEQ ID NO: 203 (protein, listed as Homo sapiens)
scFv: MKYLLPTAAAGLLLLAAQPAMAEVQLVESGGGVVRPGGSLRLSCAASGFTFDDYGMSWVRQAPGKGLEWVSGINWNGGSTGYADSVKGRFTISRDNAKNSLYLQMNSLRAEDTAVYYCARLTHPYFWGQGTLVTVSRGGGGSGGGGSGGGGSSELTQDPAVSVALGQTVRITCQGDSLRSYYASWYQQKPGQAPVLVIYGKNNRPSGIPDRFSGSSSGNTASLTITGAQAEDEADYYCNSRDSSGNHVVFGGGTKLTVLGAAAEQKLISEEDLNGAA
As for B2, the “% aggregation” value in series [3] is recorded as 100%. Also, the “% inhibition” value in series [3] (listed as Y17) is “did not inhibit”. For the same molecule, the “inhibition of vWF-dependent platelet agglutination induced by ristocetin” value in the series on washed platelets (final concentration of 10, 25 or 50 μg/ml) is listed as “did not inhibit”. Further, in the series with washed platelets (setting [4]), the “% agglutination” value is recorded as 85% and the “% inhibition” value is recorded as 15%.
